In publication PMC2632905:
Read-outs that look alike come from different tables or passages of the source.

T1: Cdc13(DBD) (Saccharomyces cerevisiae, UniProt P32797 497-694)
T1 sequence: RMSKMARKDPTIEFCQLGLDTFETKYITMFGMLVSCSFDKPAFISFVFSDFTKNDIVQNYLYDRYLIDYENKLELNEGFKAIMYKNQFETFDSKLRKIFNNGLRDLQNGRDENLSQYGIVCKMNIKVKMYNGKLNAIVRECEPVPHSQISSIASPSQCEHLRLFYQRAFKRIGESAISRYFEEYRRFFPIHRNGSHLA

T2: Cdc13p full-length (Saccharomyces cerevisiae, UniProt P32797 1-924)
T2 sequence: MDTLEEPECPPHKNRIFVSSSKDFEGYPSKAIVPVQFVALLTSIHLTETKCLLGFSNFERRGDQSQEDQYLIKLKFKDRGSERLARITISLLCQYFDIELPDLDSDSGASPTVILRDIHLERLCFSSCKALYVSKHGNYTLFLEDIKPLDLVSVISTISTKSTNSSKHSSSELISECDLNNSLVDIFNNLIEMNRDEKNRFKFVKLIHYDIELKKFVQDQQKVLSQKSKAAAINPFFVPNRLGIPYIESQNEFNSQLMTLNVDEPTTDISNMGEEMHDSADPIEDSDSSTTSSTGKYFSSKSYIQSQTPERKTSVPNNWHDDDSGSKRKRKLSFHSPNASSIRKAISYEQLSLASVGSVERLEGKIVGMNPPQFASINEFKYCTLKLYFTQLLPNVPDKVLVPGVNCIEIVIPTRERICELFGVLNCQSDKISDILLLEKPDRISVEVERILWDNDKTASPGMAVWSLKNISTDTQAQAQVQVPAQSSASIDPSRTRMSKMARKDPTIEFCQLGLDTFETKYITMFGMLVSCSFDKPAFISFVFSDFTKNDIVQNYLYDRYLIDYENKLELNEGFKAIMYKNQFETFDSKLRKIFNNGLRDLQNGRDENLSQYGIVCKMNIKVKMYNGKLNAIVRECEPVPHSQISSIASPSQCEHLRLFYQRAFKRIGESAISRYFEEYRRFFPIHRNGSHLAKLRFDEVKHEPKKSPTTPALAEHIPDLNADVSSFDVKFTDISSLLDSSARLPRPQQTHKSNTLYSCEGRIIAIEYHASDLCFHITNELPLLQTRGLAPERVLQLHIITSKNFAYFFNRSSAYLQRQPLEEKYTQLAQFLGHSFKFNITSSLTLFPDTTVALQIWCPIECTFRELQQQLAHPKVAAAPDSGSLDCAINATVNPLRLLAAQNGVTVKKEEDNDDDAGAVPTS


Key:
Cdc13(DBD) [1] = molecular target: T1, Cdc13(DBD); assay: footprinting
Cdc13p full-length [2] = molecular target: T2, Cdc13p full-length; assay: footprinting
Cdc13p full-length [3] = molecular target: T2, Cdc13p full-length; assay: footprinting; remark: listed apart in the source
Cdc13(DBD) [4] = molecular target: T1, Cdc13(DBD); assay: footprinting; remark: listed apart in the source
Cdc13p full-length [5] = molecular target: T2, Cdc13p full-length; assay: EMSA
Cdc13(DBD) [6] = molecular target: T1, Cdc13(DBD); assay: filter binding

Binder	Kd (Cdc13p full-length [5]) [nM]	Kd (Cdc13(DBD) [6]) [nM]	further results
GTGTCTGTCTGGTGGG (ssDNA) [TEL*-GTGGG]			binding result (Cdc13(DBD) [1]): binds; binding result (Cdc13p full-length [2]): binds
GTGTCTGTCTGTGTGGG (ssDNA) [TEL*-TGTGGG]			binding result (Cdc13p full-length [3]): binds; binding result (Cdc13(DBD) [4]): binds
GTGTCTGTCTGGG (ssDNA) [TEL*-GG]	0.81 ± 0.03		
GTGTGGGTGTG (ssDNA) [TEL]	0.43 ± 0.17	2.8 ± 0.6	
GTGTCTGTCTG (ssDNA) [TEL*]	11 ± 3.8	620 ± 120	
GTGTCTGTCTGAAAAAAAAAA (ssDNA) [TEL*-a10]	7.4 ± 2.4	380 ± 57	
GTGTCTGTCTGGTGTGGG (ssDNA) [TEL*-GTGTGGG]	0.81 ± 0.15		
GTGTCTGTCTGGGG (ssDNA) [TEL*-GGG]	2.2 ± 0.7	33 ± 5.7	
